PMC2121028 (The Journal of Cell Biology, 1996)

B1: epsilon-COP, GAL4 fusion (natural protein)
chain: not shown
B2: alpha-COP, the 135-kD subunit of coatomer (bovine), GAL4 fusion (natural protein, UniProt Q27954 1-1224, looked up)
chain: MLTKFETKSARVKGLSFHPKRPWILTSLHNGVIQLWDYRMCTLIDKFDEHDGPVRGIDFHKQQPLFVSGGDDYKIKVWNYKLRRCLFTLLGHLDYIRTTFFHHEYPWILSASDDQTIRVWNWQSRTCVCVLTGHNHYVMCAQFHPSEDLVVSASLDQTVRVWDISGLRKKNLSPGAVESDVRGITGVDLFGTTDAVVKHVLEGHDRGVNWAAFHPTMPLIVSGADDRQVKIWRMNESKAWEVDTCRGHYNNVSCAVFHPRQELILSNSEDKSIRVWDMSKRTGVQTFRRDHDRFWVLAAHPNLNLFAAGHDGGMIVFKLERERPAYAVHGNMLHYVKDRFLRQLDFNSSKDVAVMQLRSGSKFPVFSMSYNPAENAVLLCTRASNLENSTYDLYTIPKDADTQNPDAPEGKRSSGLTAVWVARNRFAVLDRMHSLLIKNLKNEITKKVQVPNCDEIFYAGTGNLLLRDAESITLFDVQQKRTLASVKISKVKYVIWSADMSHVALLAKHAIVICNRKLEALCNIHENIRVKSGAWDESGVFIYTTSNHIKYAVTTGDYGIIRTLDLPIYVTRVKGNNVYCLDRECRPRVLTIDPTEFKFKLALINRKYDEVLHMVRNAKLVGQSIIAYLQKKGYPEVALHFVKDEKTRFSLALECGNIEIALEAAKALDDKNCWEKLGEVALLQGNHQIVEMCYQRTKNFDKLSFLYLITGNLEKLRKMMKIAEIRKDMSGHYQNALYLGDVSERVRILKNCGQKSLAYLTAATHGLDEEAESLKETFDPEKETIPDIDPNAKLLQPPAPIMPLDTNWPLLTVSKGFFEGSIASKGKGGALAADIDIDTVGTEGWGEDAELQLDEDGFVEATEGLGDDALGKGQEEGGGWDVEEDLELPPELDIPPGAAGGAEDGFFVPPTKGTSPTQIWCNNSQLPVDHILAGSFETAMRLLHDQVGVTQFGPYKQLFLQTYARGRTTYQALPCLPSMYGYPNRNWKDAGLKNGVPAVGLKLNDLIQRLQLCYQLTTVGKFEEAVEKFRSILLSVPLLVVDNKQEIAEAQQLITICREYIVGLSMETERKKLPKETLEQQKRICEMAAYFTHSNLQPVHMILVLRTALNLFFKLKNFRTAAAFARRLLELGPKPEVAQQTRKILSACEKNPTDAYQLNYDMHNPFDICAASYRPIYRGKPVEKCPLSGACYSPEFKGQICKVTTVTEIGKDVIGLRISPLQFR

Legend:
[1] = molecular target: B2; assay: two-hybrid
[2] = molecular target: B1; assay: two-hybrid

| generations/day in -His + 25 mM AT [1] [generations/day] | generations/day in -His + 25 mM AT [2] [generations/day] | Binder |
| --- | --- | --- |
| 2.11 | – | beta'-COP, GAL4 fusion (natural protein, bovine, UniProt P35605 1-906, looked up) MPLRLDIKRKLTARSDRVKSVDLHPTEPWMLASLYNGSVCVWNHETQTLVKTFEVCDLPVRAAKFVARKNWVVTGADDMQIRVFNYNTLERVHMFEAHSDYIRCIAVHPTQPFILTSSDDMLIKLWDWDKKWSCSQVFEGHTHYVMQIVINPKDNNQFASASLDRTIKVWQLGSSSPNFTLEGHEKGVNCIDYYSGGDKPYLISGADDRLVKIWDYQNKTCVQTLEGHAQNVSCASFHPELPIIITGSEDGTVRIWHSSTYRLESTLNYGMERVWCVASLRGSNNVALGYDEGSIIVKLGREEPAMSMDANGKIIWAKHSEVQQANLKAMGDAEIKDGERLPLAVKDMGSCEIYPQTIQHNPNGRFVVVCGDGEYIIYTAMALRNKSFGSAQEFAWAHDSSEYAIRESNSVVKIFKNFKEKKSFKPDFGAESIYGGFLLGVRSVNGLAFYDWENTELIRRIEIQPKHIFWSDSGELVCIATEESFFILKYLSEKVLAAQETHEGVTEDGIEDGFEVLGEIQEIVKTGLWVGDCFIYTSSVNRLNYYVGGEIVTIAHLDRTMYLLGYIPKDNRLYLGDKELNIVSYSLLVSVLEYQTAVMRRDFSMADKVLPTIPKEQRTRVAHFLEKQGFKQQALTVSTDPEHRFELALQLGELKIAYQLAVEAESEQKWKQLAELAISKCQFGLAQECLHHAQDYGGLLLLATASGNASMVNKLAEGAERDGKNNVAFMSYFLQGKLDACLELLIRTGRLPEAAFLARTYLPSQVSRVVKLWRENLSKVNQKAAESLADPTEYENLFPGLKEAFVVEEWVKETHADLWPAKQYPLVTPNEERNVMEEAKGFQPSRSAAQQELDGKPASPTPVIVTSQTANKEEKSLLELEVDLDNLEIEDIDTTDINLDEDILDD |
| 5.2 | – | B1 |
| – | 2.8 | B2 |
